Data published in patent US20090031441A1 (NATIONAL UNIVERSITY CORPORATION NAGOYA UNIVERSITY, published 2009).

How the values were obtained:
[1] = biological target: T1, RGA (Arabidopsis DELLA protein), yeast two-hybrid prey in pGADT7 AD vector (Arabidopsis, UniProt Q9SLH3 1-587); experiment: yeast two-hybrid, AtGID1 bait and AtDELLA prey, 10^-5 M GA4 in medium; colony growth (Assay A) and beta-galactosidase activity (Assay B)
T1 construct: also called AtDELLA
T1 sequence (looked up): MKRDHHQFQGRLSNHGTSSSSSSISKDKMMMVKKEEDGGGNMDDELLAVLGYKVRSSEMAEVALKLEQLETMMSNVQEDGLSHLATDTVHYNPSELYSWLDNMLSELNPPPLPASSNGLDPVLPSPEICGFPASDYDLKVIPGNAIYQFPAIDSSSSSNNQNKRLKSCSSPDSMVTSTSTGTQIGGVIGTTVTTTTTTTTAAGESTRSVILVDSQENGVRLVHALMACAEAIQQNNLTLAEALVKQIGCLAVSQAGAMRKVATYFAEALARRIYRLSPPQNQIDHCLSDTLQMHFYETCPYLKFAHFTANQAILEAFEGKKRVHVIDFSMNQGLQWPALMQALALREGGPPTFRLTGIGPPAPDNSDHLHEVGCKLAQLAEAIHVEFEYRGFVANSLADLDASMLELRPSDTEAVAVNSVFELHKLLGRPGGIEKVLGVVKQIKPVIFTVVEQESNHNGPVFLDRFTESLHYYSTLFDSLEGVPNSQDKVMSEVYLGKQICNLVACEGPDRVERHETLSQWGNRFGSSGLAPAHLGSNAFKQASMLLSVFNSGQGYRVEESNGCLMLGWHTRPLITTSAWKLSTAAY
Description: (§1) Panel A) depicts AtGID1-AtDELLA interaction in the presence of GA in two types of yeast hybrid (Y2H) assays. Each AtGID1 was used as a bait while AtDELLA was a prey. GA₄ (10⁻⁵ M) was added to the medium. The bars indicates β-galactosidase activity when o-nitrophenol-β-D-galactopyranoside was used as a substrate (Assay B). The growth of each transformant in the defined medium for 2 days (Assay A) is shown beneath of each bar graph. The experiment was carried out in quadruplicate. The SD value shown in the figure was determined from three measurements. Panel B) depicts the dose response in AtGID1-RGA interaction in Assay B of Y2H. GA₄ (10⁻⁵ to 10⁻⁹ M) was added to the medium. The experiment was conducted in duplicates. The SD value shown in the figure was determined from three measurements. Panel C) depicts the results of an evaluation of the in vitro GA-binding potency of AtGID1 using AtDELLA. Left panel, 15 minutes after mixing AtGID1c (C), tritiated GA, with an excess amount of non-labeled GA (+) or without non-labeled GA (−). GAI (G) or RGA (R) was added, and then the GA-binding activity in each reaction mixture was measured according to the standard method. Recombinant protein originating from the vector (v) was used as a negative control. The experiment was carried out in duplicates. The SD value was determined from three measurements. Right panel, a profile of Western blotting for recombinant AtDELLA using an antibody to His tag. G, GAI; R, RGA; v, vector; M, molecular weight marker.
Arabidopsis has five DELLA proteins (RGA, GAI, RGL1, RGL2, and RGL3; collectively designated AtDELLA; Fleet, C. M., and Sun, T.-P. (2005) Curr. Opin. Plant Biol., 8, 77-85; Dill, A., and Sun, T. (2001) Genetics, 159, 777-785); therefore, there are 15 possible combinations of GID1/DELLA proteins. To verify the positive interactions between AtGID1-AtDELLA, two experiments were conducted using the yeast two hybrid (Y2H) system. […] In the second experiment (Assay B), β-galactosidase activity was measured, as reporter gene product of AtGID1-AtDELLA interactions. […]

[2] = biological target: T1, RGA (Arabidopsis DELLA protein), yeast …; experiment: yeast two-hybrid Assay B (beta-galactosidase), GA4 dose response 10^-5 to 10^-9 M
Description: as §1, with “Each” for “Panel A) depicts AtGID1-AtDELLA interaction in the presence of GA in two types of yeast hybrid (Y2H) assays. Each”, “marker. […]” for “marker.”

Binder | binding result [1] | binding result [2]
AtGID1a (At3g05120), yeast two-hybrid bait in pGBKT7 DNA-BD vector (receptor, not shown: small tags and cut ends, Bait fusion for the Y2H assays (BD Matchmaker Two-hybrid System 3); also called Arabidopsis GID1) MAASDEVNLIESRTVVPLNTWVLISNFKVAYNILRRPDGTFNRHLAEYLDRKVTANANPVDGVFSFDVLIDRRINLLSRVYRPAYADQEQPPSILDLEKPVDGDIVPVILFFHGGSFAHSSANSAIYDTLCRRLVGLCKCVVVSVNYRRAPENPYPCAYDDGWIALNWVNSRSWLKSKKDSKVHIFLAGDSSGGNIAHNVALRAGESGIDVLGNILLNPMFGGNERTESEKSLDGKYFVTVRDRDWYWKAFLPEGEDREHPACNPFSPRGKSLEGVSFPKSLVVVAGLDLIRDWQLAYAEGLKKAGQEVKLMHLEKATVGFYLLPNNNHFHNVMDEISAFVNAEC | binds | 
AtGID1b (At3g63010), yeast two-hybrid bait in pGBKT7 DNA-BD vector (receptor, not shown: small tags and cut ends, Bait fusion for the Y2H assays; also called Arabidopsis GID1) MAGGNEVNLNECKRIVPLNTWVLISNFKLAYKVLRRPDGSFNRDLAEFLDRKVPANSFPLDGVFSFDHVDSTTNLLTRIYQPASLLHQTRHGTLELTKPLSTTEIVPVLIFFHGGSFTHSSANSAIYDTFCRRLVTICGVVVVSVDYRRSPEHRYPCAYDDGWNALNWVKSRVWLQSGKDSNVYVYLAGDSSGGNIAHNVAVRATNEGVKVLGNILLHPMFGGQERTQSEKTLDGKYFVTIQDRDWYWRAYLPEGEDRDHPACNPFGPRGQSLKGVNFPKSLVVVAGLDLVQDWQLAYVDGLKKTGLEVNLLYLKQATIGFYFLPNNDHFHCLMEELNKFVHSIEDSQSKSSPVLLTP |  | binds
